The values below come from IntAct's records for PubMed 10523676.

To fix the notation:
B1: DNA polymerase alpha catalytic subunit (Mus musculus), P33609 (parent)
chain: MAPMHEEDCKLEASAVSDSGSFAASRARREKKSKKGRQEALERLKKAKAGEKYKYEVEDLTSVYEEVDEEQYSKLVQARQDDDWIVDDDGIGYVEDGREIFDDDLEDDALDTCGKGSDGKAHRKDRKDVKKPSVTKPNNIKAMFIASAGKKTTDKAVDLSKDDLLGDILQDLNTETAQITPPPVLIPKKKRSTGALLNPFSVHTPKAIPSGKPASPVLRNEPLLTPIPLKRAELAGELAQPECPEDEQELGVMEFEDGDFDESMDTEKVDEKPVTAKTWDQETEPVERVEHEADPERGTTSYLENFLPDVSCWDIDQDDESIPQEVQVDSSNLPLVKGADDEQVFQFYWLDAYEDPYNQPGVVFLFGKVWIESVKTHVSCCVMVKNIERTLYFLPREMKFDLNTGKETAIPVTMKDVYEEFDSKISAKYKIMKFKSKIVEKNYAFEIPDVPEKSEYLEVRYSAEVPQLPQNLKGETFSHVFGTNTSSLELFLMNRKIKGPCWLEVKNPQLLNQPISWCKFEVMALKPDLVNVIKDVSPPPLVVMSFSMKTMQNVQNHQHEIIAMAALVHHSFALDKAPPEPPFQTHFCVVSKPKDCIFPCDFKEVISKKNMKVEIAATERTLIGFFLAKVHKIDPDILVGHNICSFELEVLLQRINECKVPYWSKIGRLRRSNMPKLGSRSGFGERNATCGRMICDVEISAKELIHCKSYHLSELVQQILKTERIVIPTENIRNMYSESSYLLYLLEHIWKDARFILQIMCELNVLPLALQITNIAGNIMSRTLMGGRSERNEFLLLHAFYENNYIVPDKQIFRKPQQKLGDEDEEIDGDTNKYKKGRKKATYAGGLVLDPKVGFYDKFILLLDFNSLYPSIIQEFNICFTTVQRVTSEVQKATEDEEQEQIPELPDPNLEMGILPREIRKLVERRKQVKQLMKQQDLNPDLVLQYDIRQKALKLTANSMYGCLGFSYSRFYAKPLAALVTYKGREILMHTKDMVQKMNLEVIYGDTDSIMINTNSTNLEEVFKLGNKVKSEVNKLYKLLEIDIDAVFKSLLLLKKKKYAALVVEPTSDGNYITKQELKGLDIVRRDWCDLAKDTGNFVIGQILSDQSRDTIVENIQKRLIEIGENVLNGSVPVSQFEINKALTKDPQDYPDRKSLPHVHVALWINSQGGRKVKAGDTVSYVICQDGSNLTATQRAYAPEQLQKLDNLAIDTQYYLAQQIHPVVARICEPIDGIDAVLIALWLGLDSTQFRVHQYHKDEENDALLGGPAQLTDEEKYKDCEKFKCLCPSCGTENIYDNVFEGSGLDMEPSLYRCSNVDCKVSPLTFMVQLSNKLIMDIRRCIKKYYDGWLICEEPTCCSRLRRLPLHFSRNGPLCPVCMKAVLRPEYSDKSLYTQLCFYRYIFDADCALEKLTEHEKDKLKKQFFPLRVLQDYRKVKNIAEQFLSWSGYSEVNLSKLFANYAGKS
partner: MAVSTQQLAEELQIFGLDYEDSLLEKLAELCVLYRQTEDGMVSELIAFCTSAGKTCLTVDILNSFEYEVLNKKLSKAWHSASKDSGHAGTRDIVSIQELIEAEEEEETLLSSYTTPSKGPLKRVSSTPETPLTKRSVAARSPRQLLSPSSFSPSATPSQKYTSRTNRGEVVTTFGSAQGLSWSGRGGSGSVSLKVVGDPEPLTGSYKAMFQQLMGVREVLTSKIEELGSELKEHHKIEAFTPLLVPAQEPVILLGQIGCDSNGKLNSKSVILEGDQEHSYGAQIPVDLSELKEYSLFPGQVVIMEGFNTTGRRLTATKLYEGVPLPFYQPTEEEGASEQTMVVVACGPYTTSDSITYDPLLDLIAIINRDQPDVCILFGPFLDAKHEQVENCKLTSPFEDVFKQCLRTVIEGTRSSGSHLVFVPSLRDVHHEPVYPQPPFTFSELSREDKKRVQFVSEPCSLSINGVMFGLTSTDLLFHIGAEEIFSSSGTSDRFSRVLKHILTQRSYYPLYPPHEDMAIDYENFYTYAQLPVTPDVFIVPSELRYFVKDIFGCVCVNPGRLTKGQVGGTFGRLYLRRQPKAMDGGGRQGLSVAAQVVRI

In this test the parent is B1. The settings on record: with dpoa2_mouse Pola2, P33611.
As for C1287A;C1290A, the “effect of a mutation on the interaction” value is recorded as “decreasing interaction”.
The same measure for C1375A;C1378A: “decreasing interaction”.
